# Results taken from patent US20190352428A1 (Seagen, published 2019).
# T1: CD19 (UniProt P15391 20-556, limits assumed)
# T1 sequence (looked up): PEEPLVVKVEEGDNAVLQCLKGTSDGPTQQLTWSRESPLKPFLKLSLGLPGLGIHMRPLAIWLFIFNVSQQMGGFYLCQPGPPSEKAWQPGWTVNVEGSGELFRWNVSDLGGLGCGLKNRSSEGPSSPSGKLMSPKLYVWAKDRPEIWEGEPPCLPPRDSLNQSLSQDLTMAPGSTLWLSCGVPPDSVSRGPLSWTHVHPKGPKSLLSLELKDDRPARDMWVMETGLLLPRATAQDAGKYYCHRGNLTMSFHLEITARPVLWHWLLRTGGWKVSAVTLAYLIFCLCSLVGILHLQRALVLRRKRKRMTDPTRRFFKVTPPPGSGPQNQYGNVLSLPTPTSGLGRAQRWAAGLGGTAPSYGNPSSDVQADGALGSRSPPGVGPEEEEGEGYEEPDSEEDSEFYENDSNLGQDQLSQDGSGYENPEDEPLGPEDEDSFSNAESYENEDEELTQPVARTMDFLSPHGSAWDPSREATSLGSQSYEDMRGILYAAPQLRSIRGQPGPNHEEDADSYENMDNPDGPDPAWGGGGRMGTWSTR
# T2: CD74 (UniProt P04233 1-296)
# T2 construct: whole, on cells; Target of HuMab-CD74-011
# T2 sequence (looked up): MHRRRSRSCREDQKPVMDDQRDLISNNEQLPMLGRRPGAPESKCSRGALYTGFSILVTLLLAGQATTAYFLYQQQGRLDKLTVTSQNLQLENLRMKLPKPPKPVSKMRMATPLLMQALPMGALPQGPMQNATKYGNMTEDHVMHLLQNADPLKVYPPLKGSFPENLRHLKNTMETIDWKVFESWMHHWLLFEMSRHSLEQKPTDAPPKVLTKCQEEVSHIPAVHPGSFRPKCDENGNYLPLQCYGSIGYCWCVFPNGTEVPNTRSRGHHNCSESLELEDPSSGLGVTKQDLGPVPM
# B1: hBU12ec-1910(2) (antibody, V domains shown)
# VH: QVQLQESGPGLVKPSQTLSLTCTVSGGSISTSGMGVGWIRQHPGKGLEWIGHIWWDDDKRYNPALKSRVTISVDTSKNQFSLKLSSVTAADTAVYYCARMELWSYYFDYWGQGTLVTVSS
# VL: EIVLTQSPATLSLSPGERATLSCSASSSVSYMHWYQQKPGQAPRLLIYDTSKLASGIPARFSGSGSGTDFTLTISSLEPEDVAVYYCFQGSVYPFTFGQGTKLEIKR
# modifications: PBD drug-linker on the engineered cysteine at position 239 of the heavy chain constant region
# B2: hBU12ec (antibody, V domains shown)
# VH: B1 VH
# VL: B1 VL
# notes: Anti-CD19 antibody; also called parent antibody
# B3: Cvel-1910(2) (antibody)
# VH: EACGASTSVDELQAEVDQLEDENYALKTKVAQLRKKVEKLGSIPVSLRSGQVQLQESGPGLVKPSQTLSLTCTVSGGSISTSGMGVGWIRQHPGKGLEWIGHIWWDDDKRYNPALKSRVTISVDTSKNQFSLKLSSVTAADTAVYYCARMELWSYYFDYWGQGTLVTVSS
# VL: EACGASTTVAQLEEKVKTLRAENYELKSEVQRLEEQVAQLGSIPVSLRSGEIVLTQSPATLSLSPGERATLSCSASSSVSYMHWYQQKPGQAPRLLIYDTSKLASGIPARFSGSGSGTDFTLTISSLEPEDVAVYYCFQGSVYPFTFGQGTKLEIKR
# modifications: PBD drug-linker on the engineered cysteine at position 239 of the heavy chain constant region
# B4: Cvel hBU12ec (antibody)
# VH: B3 VH
# VL: B3 VL
# notes: the linker/protease site is not restated for this antibody; S239C constant region
# B5: CVel HuMab-CD74-011 (antibody)
# heavy: EACGASTSVDELQAEVDQLEDENYALKTKVAQLRKKVEKLGSIPVSLRSGQVQLVESGGGVVQPGRSLRLSCAASGFTFSSYGMHWVRQAPDKGLEWVAVIWYDGSNKYYADSVKGRFTISRDNSKNTLYLQMNSLRAEDTAVYYCARGGTLVRGAMYGTDVWGQGTTVTVSS
# light: EACGASTTVAQLEEKVKTLRAENYELKSEVQRLEEQVAQLGSIPVSLRSGDIQMTQSPSSLSASVGDRVTITCRASQGISSWLAWYQQKPEKAPKSLIYAASSLQSGVPSRFSGSGSGTDFTLTISSLQPEDFATYYCQQYNSYPLTFGGGTKVEIK
# notes: not restated for this antibody
# What was measured:
# CD19 [1] = molecular target: T1, CD19; assay: cell-based or functional assay
# CD19 [2] = molecular target: T1, CD19; assay: FACS competition with labeled parent hBU12, Raji cells
# Protocol: (§1) To evaluate cell binding of masked antibodies, 2×10⁵ of indicated cells (Raji, Ramos, PC3, Daudi) were combined with fluorescently labeled parent antibody mixed with serial dilutions of competitor (masked antibody) in staining buffer (PBS, 2% FBS, 0.2% NaN3). Samples were incubated for 1 hour on ice and washed twice with ice-cold staining buffer. Labeled cells were examined by flow cytometry on a BD LSRII gated to exclude nonviable cells and analyzed using Flowing Software (Turku Centre for Biotechnology). The IC50 was calculated using GraphPad Prism 6.
# (§2) Four antibodies (hBU12 against CD19, anti-Antigen 1 antibody against Antigen 1 (cAg-1), 1C1 against EphA2 and HuMab CD74-011 against CD74) were tested using the coiled coil blocking domains. The antibody CD74 comprises a light chain (SEQ ID NO: 1) and a heavy chain (SEQ ID NO: 2). Sequences for A3B3, A4B4, CVel, antipO, and dHLX were N-terminally fused to the light and heavy chains of the antibodies. To test for binding, FACs-based competition assays were utilized to account for high concentrations of competitor necessary to displace the parent antibody and the results are listed in Tables 2-5. Other antibodies that can be conjugated to a coiled-coil peptide are SEQ ID NOs: 3-19. SEQ ID NO: 3 is the amino acid sequence of hBU12 heavy chain variable region, and SEQ ID NO: 4 is the amino acid sequence of hBU12 light chain variable region. […]
# CD19 [3] = molecular target: CD19 (UniProt P15391); assay: competition FACS, Raji cells; vs parent
# CD19 [4] = molecular target: CD19 (UniProt P15391); assay: cell-based or functional assay
# CD19 [5] = molecular target: CD19 (UniProt P15391); assay: competition FACS, Raji cells; unit and quantity not given
# CD19 [6] = molecular target: T1, CD19; assay: FACS competition, Raji cells; fold vs unmasked hBU12ec
# Protocol: as §1
# (§3) Activity was tested using the hBU12 antibody, cAg-1, 1C1, HuMab-CD74-011, and an antibody against Antigen 2, designated hAg-2.
# CD19 [7] = molecular target: T1, CD19; assay: FACS competition, Raji cells; fold vs hBU12ec
# Protocol: as §1, §2
# CD74 = molecular target: T2, CD74; assay: FACS competition, Daudi cells; fold vs unmasked HuMab-CD74-011
# Protocol: as §1, §3
binder,measurement,setting,value
B1,"Cytotoxicity Data IC50 (ng/mL), Ramos cells",CD19 [1],0.1 ng/mL
B2,IC50,CD19 [2],3.6 nM
B3,Binding Data (fold decrease per paragraph 159),CD19 [3],> 160 fold
same,"Cytotoxicity Data Fold Change, Ramos cells",CD19 [4],1320 fold
same,"Cytotoxicity Data IC50 (ng/mL), Ramos cells",CD19 [4],100 ng/mL
same,Binding Data,CD19 [5],> 600
B4,fold decrease in binding,CD19 [6],> 300 fold
same,Fold Change,CD19 [7],> 300 fold
B5,fold decrease in binding,CD74,26 fold
